Reference: patent US20230190801A1

Target: CD38 (human) (UniProt P28907)
Test: cell-based or functional assay

Which results are given for daratumumab (antibody)?
daratumumab-induced fratricide of expanded NK cells (1 µg/mL daratumumab, 4 h, PI flow cytometry) (times lower (g-NK vs cNK)): 13; g-NK cell-mediated cytotoxicity against daratumumab-treated MM cell lines, correlation with CD38 expression: 0.92 R^2
